Measured values: US10005829B2, “Synthetic linear apelin mimetics for the treatment of heart failure” (priority 2012, dated 2018)
[ ]: non-standard residue; d: D form. pGlu = O=C1CC[C@@H](C(=O)O)N1; dNle = CCCC[C@@H](N)C(=O)O; Nle = CCCC[C@H](N)C(=O)O; Aib = CC(C)(N)C(=O)O

T1: APJ receptor (human, UniProt P35414 1-380)
T1 sequence (looked up): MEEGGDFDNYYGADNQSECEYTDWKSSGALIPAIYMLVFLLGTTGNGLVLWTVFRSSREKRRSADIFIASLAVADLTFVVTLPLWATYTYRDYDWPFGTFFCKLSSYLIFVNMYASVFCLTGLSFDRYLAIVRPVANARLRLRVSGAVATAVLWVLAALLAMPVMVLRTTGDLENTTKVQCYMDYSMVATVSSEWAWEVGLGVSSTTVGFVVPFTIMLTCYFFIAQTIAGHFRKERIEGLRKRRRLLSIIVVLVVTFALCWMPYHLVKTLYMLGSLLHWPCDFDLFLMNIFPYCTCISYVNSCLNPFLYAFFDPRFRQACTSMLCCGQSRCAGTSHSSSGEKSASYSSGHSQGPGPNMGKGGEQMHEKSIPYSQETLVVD

B1: pE-R-P-R-Y-a-H-K-G-P-nle-a-f-OH (peptide)
peptide: [pGlu]RPRY[dA]HKGP[dNle][dA][dF]-OH
SMILES: CCCC[C@@H](NC(=O)[C@@H]1CCCN1C(=O)CNC(=O)[C@H](CCCCN)NC(=O)[C@H](Cc1c[nH]cn1)NC(=O)[C@@H](C)NC(=O)[C@H](Cc1ccc(O)cc1)NC(=O)[C@H](CCCNC(=N)N)NC(=O)[C@@H]1CCCN1C(=O)[C@H](CCCNC(=N)N)NC(=O)[C@@H]1CCC(=O)N1)C(=O)N[C@H](C)C(=O)N[C@H](Cc1ccccc1)C(=O)O
B2: pE-R-a-R-L-a-H-K-G-P-nle-a-f-OH (peptide)
peptide: [pGlu]R[dA]RL[dA]HKGP[dNle][dA][dF]-OH
SMILES: CCCC[C@@H](NC(=O)[C@@H]1CCCN1C(=O)CNC(=O)[C@H](CCCCN)NC(=O)[C@H](Cc1c[nH]cn1)NC(=O)[C@@H](C)NC(=O)[C@H](CC(C)C)NC(=O)[C@H](CCCNC(=N)N)NC(=O)[C@@H](C)NC(=O)[C@H](CCCNC(=N)N)NC(=O)[C@@H]1CCC(=O)N1)C(=O)N[C@H](C)C(=O)N[C@H](Cc1ccccc1)C(=O)O
B3: pE-R-P-R-L-a-f-K-G-P-nle-a-f-OH (peptide)
peptide: [pGlu]RPRL[dA][dF]KGP[dNle][dA][dF]-OH
SMILES: CCCC[C@@H](NC(=O)[C@@H]1CCCN1C(=O)CNC(=O)[C@H](CCCCN)NC(=O)[C@@H](Cc1ccccc1)NC(=O)[C@@H](C)NC(=O)[C@H](CC(C)C)NC(=O)[C@H](CCCNC(=N)N)NC(=O)[C@@H]1CCCN1C(=O)[C@H](CCCNC(=N)N)NC(=O)[C@@H]1CCC(=O)N1)C(=O)N[C@H](C)C(=O)N[C@H](Cc1ccccc1)C(=O)O
B4: pE-R-P-R-L-a-L-K-G-P-nle-a-f-OH (peptide)
peptide: [pGlu]RPRL[dA]LKGP[dNle][dA][dF]-OH
SMILES: CCCC[C@@H](NC(=O)[C@@H]1CCCN1C(=O)CNC(=O)[C@H](CCCCN)NC(=O)[C@H](CC(C)C)NC(=O)[C@@H](C)NC(=O)[C@H](CC(C)C)NC(=O)[C@H](CCCNC(=N)N)NC(=O)[C@@H]1CCCN1C(=O)[C@H](CCCNC(=N)N)NC(=O)[C@@H]1CCC(=O)N1)C(=O)N[C@H](C)C(=O)N[C@H](Cc1ccccc1)C(=O)O
B5: pE-R-P-R-L-S-Aib-K-G-P-nle-a-f-OH (peptide)
peptide: [pGlu]RPRLS[Aib]KGP[dNle][dA][dF]-OH
SMILES: CCCC[C@@H](NC(=O)[C@@H]1CCCN1C(=O)CNC(=O)[C@H](CCCCN)NC(=O)C(C)(C)NC(=O)[C@H](CO)NC(=O)[C@H](CC(C)C)NC(=O)[C@H](CCCNC(=N)N)NC(=O)[C@@H]1CCCN1C(=O)[C@H](CCCNC(=N)N)NC(=O)[C@@H]1CCC(=O)N1)C(=O)N[C@H](C)C(=O)N[C@H](Cc1ccccc1)C(=O)O
B6: pE-R-P-R-L-S-Aib-K-G-P-Nle-a-f-OH (peptide)
peptide: [pGlu]RPRLS[Aib]KGP[Nle][dA][dF]-OH
SMILES: CCCC[C@H](NC(=O)[C@@H]1CCCN1C(=O)CNC(=O)[C@H](CCCCN)NC(=O)C(C)(C)NC(=O)[C@H](CO)NC(=O)[C@H](CC(C)C)NC(=O)[C@H](CCCNC(=N)N)NC(=O)[C@@H]1CCCN1C(=O)[C@H](CCCNC(=N)N)NC(=O)[C@@H]1CCC(=O)N1)C(=O)N[C@H](C)C(=O)N[C@H](Cc1ccccc1)C(=O)O
B7: pE-R-P-R-(D-Leu)-S-Aib-K-G-P-nle-a-f-OH (peptide)
peptide: [pGlu]RPR[dL]S[Aib]KGP[dNle][dA][dF]-OH
SMILES: CCCC[C@@H](NC(=O)[C@@H]1CCCN1C(=O)CNC(=O)[C@H](CCCCN)NC(=O)C(C)(C)NC(=O)[C@H](CO)NC(=O)[C@@H](CC(C)C)NC(=O)[C@H](CCCNC(=N)N)NC(=O)[C@@H]1CCCN1C(=O)[C@H](CCCNC(=N)N)NC(=O)[C@@H]1CCC(=O)N1)C(=O)N[C@H](C)C(=O)N[C@H](Cc1ccccc1)C(=O)O
B8: pE-R-P-R-L-a-a-K-G-P-nle-a-f-OH (peptide)
peptide: [pGlu]RPRL[dA][dA]KGP[dNle][dA][dF]-OH
SMILES: CCCC[C@@H](NC(=O)[C@@H]1CCCN1C(=O)CNC(=O)[C@H](CCCCN)NC(=O)[C@@H](C)NC(=O)[C@@H](C)NC(=O)[C@H](CC(C)C)NC(=O)[C@H](CCCNC(=N)N)NC(=O)[C@@H]1CCCN1C(=O)[C@H](CCCNC(=N)N)NC(=O)[C@@H]1CCC(=O)N1)C(=O)N[C@H](C)C(=O)N[C@H](Cc1ccccc1)C(=O)O
B9: pE-R-P-R-L-S-Aib-K-G-P-Nle-a-F-OH (peptide)
peptide: [pGlu]RPRLS[Aib]KGP[Nle][dA]F-OH
SMILES: CCCC[C@H](NC(=O)[C@@H]1CCCN1C(=O)CNC(=O)[C@H](CCCCN)NC(=O)C(C)(C)NC(=O)[C@H](CO)NC(=O)[C@H](CC(C)C)NC(=O)[C@H](CCCNC(=N)N)NC(=O)[C@@H]1CCCN1C(=O)[C@H](CCCNC(=N)N)NC(=O)[C@@H]1CCC(=O)N1)C(=O)N[C@H](C)C(=O)N[C@@H](Cc1ccccc1)C(=O)O
B10: pE-R-P-R-L-S-Aib-K-G-P-nle-a-F-OH (peptide)
peptide: [pGlu]RPRLS[Aib]KGP[dNle][dA]F-OH
SMILES: CCCC[C@@H](NC(=O)[C@@H]1CCCN1C(=O)CNC(=O)[C@H](CCCCN)NC(=O)C(C)(C)NC(=O)[C@H](CO)NC(=O)[C@H](CC(C)C)NC(=O)[C@H](CCCNC(=N)N)NC(=O)[C@@H]1CCCN1C(=O)[C@H](CCCNC(=N)N)NC(=O)[C@@H]1CCC(=O)N1)C(=O)N[C@H](C)C(=O)N[C@@H](Cc1ccccc1)C(=O)O

Target: T1, APJ receptor
Assay: cell-based or functional assay

Row | Binder | hAPJ Ca^2+ Flux EC50 [nM]
1 | B1 | 114
2 | B2 | 623
3 | B3 | 9.2
4 | ERPRLAHKGPLA (pE at 1; D-Ala at 6; D-Nle at 11; D-Ala at 12; C-terminal NH(Phenethyl) amide) [pE-R-P-R-L-a-H-K-G-P-nle-a-NH(Phenethyl)] | 16.2
5 | ERPRLSXKGPLPF (pE at 1; Aib at 7; Nle (L-norleucine) at 11; D-Phe at 13) [pE-R-P-R-L-S-Aib-K-G-P-Nle-P-f-OH] | 4.5
6 | [pGlu]RPRL[dA]H[dK]GP[Nle][dA][dF]-OH [pE-R-P-R-L-a-H-k-G-P-Nle-a-f-OH] | 99
7 | B4 | 4.4
8 | B5 | 2
9 | ERPRLAHKGPLXF (pE at 1; D-Ala at 6; D-Nle at 11; D-Abu at 12; D-Phe at 13) [pE-R-P-R-L-a-H-K-G-P-nle-abu-f-OH] | 2.4
10 | ERPRLAHKGPLPF (pE at 1; D-Ala at 6; Nle (L-norleucine) at 11; D-Phe at 13) [pE-R-P-R-L-a-H-K-G-P-Nle-P-f-OH] | 34.5
11 | [pGlu]RPRL[dA]HKGP[Nle][dA][dF]-OH [pE-R-P-R-L-a-H-K-G-P-Nle-a-f-OH] | 2.4
12 | ERPRLXHKGPLAF (pE at 1; D-Abu at 6; D-Nle at 11; D-Ala at 12; D-Phe at 13) [pE-R-P-R-L-abu-H-K-G-P-nle-a-f-OH] | 3
13 | ERPRLAHKGPLF (pE at 1; D-Ala at 6; Nle (L-norleucine) at 11; D-Phe at 12) [pE-R-P-R-L-a-H-K-G-P-Nle-f-OH] | 10.7
14 | B6 | 3.3
15 | [pGlu][dR]PRL[dA]HKGP[dNle][dA][dF]-OH [pE-r-P-R-L-a-H-K-G-P-nle-a-f-OH] | 796
16 | B7 | 5
17 | [pGlu]RPRL[dA]HKGP[Nle][dA]F-OH [pE-R-P-R-L-a-H-K-G-P-Nle-a-F-OH] | 4.5
18 | B8 | 16.1
19 | B9 | 2.4
20 | B10 | 3.9
21 | [pGlu]RPRL[dA]HKGP[dNle][dA][dF]-NH2 [pE-R-P-R-L-a-H-K-G-P-nle-a-f-NH2] | 14.8
